The source of these data is patent publication US20240343791A1.

For orientation: Kd means the equilibrium constant for the complex coming apart. Broadly, the EC50 (read off the curve) is the concentration that produces a half-maximal response. Read a high EC50 (read off the curve) as lower potency in that assay. By IC50 is commonly meant the midpoint of a concentration-inhibition curve. Lower therefore signals inhibition by little substance.

Assay [1] deals with human VEGFA (Cat. No. Z03073, Genscript) (human) (UniProt P15692). The assay can be described thus: SPR (Biacore), protein captured on protein A chip, VEGFA as analyte, 25 C. (In SPR one partner is held on a chip, and binding of the other changes the refractive index at the surface.)
For assay [2] the target is unchanged.
Assay [3] shares this target. The assay can be described thus: ELISA, plate coated with VEGFA, detection with HRP anti-human IgG. (ELISA stands for enzyme-linked immunosorbent assay.)
Assay [4] shares this target. In words: competition ELISA, Eylea coated as competitor, 5 nM VEGFA dimer pre-incubated with Conbercept.
Assay [5] shares this target. The assay can be described thus: competition ELISA: plate coated with Eylea, Conbercept in dilution series pre-incubated with 5 nM VEGFA, VEGFA bound to Eylea detected. The sheet prints ng/mL, the text prints nM.

Chain of Eylea (Fc fusion) (chain): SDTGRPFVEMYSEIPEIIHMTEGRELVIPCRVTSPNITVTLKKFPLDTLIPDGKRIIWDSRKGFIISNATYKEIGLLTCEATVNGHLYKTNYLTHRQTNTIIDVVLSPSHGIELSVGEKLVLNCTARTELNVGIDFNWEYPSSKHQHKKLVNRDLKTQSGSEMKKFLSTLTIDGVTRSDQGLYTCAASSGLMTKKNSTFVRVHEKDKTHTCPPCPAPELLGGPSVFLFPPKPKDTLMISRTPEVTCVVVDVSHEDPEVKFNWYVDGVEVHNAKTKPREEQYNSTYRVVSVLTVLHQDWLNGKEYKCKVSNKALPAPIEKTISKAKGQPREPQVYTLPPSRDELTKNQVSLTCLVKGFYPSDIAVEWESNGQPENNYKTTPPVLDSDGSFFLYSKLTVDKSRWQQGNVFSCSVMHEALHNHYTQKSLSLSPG
Chain of human VEGFA (Cat. No. Z03073, Genscript) (human) (P15692 other isoform, or with tags, fused parts or gaps limits assumed): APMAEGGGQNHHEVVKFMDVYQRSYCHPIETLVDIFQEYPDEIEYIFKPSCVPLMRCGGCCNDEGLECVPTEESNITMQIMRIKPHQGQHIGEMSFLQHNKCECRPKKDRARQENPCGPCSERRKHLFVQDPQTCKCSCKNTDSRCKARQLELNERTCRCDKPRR
Chain of Conbercept eye injection (Fc fusion) (chain): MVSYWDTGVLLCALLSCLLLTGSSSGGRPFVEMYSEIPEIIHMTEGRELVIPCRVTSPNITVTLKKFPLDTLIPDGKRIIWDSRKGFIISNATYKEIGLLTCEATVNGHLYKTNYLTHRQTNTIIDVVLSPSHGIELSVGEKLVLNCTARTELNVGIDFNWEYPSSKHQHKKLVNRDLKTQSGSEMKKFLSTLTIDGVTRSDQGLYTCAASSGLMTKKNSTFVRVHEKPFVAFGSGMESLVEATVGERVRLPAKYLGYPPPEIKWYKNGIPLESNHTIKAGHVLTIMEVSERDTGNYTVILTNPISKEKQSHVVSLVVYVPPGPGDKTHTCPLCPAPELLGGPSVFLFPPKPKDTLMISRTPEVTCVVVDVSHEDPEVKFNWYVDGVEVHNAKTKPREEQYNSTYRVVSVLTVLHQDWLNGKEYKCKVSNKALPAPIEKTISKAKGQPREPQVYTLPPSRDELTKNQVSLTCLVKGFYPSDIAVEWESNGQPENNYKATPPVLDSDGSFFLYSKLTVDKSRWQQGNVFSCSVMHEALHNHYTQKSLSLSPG

In assay [1], Eylea (Fc fusion) showed a Kd of 0.0361 nM. In addition, in assay [2], the IC50 (inhibition of VEGFA-induced HUVEC proliferation, CellTiter-Glo) stood at 0.0045 µg/mL. This substance also returned an EC50 (read off the curve) in assay [3] of 0.07 µg/mL.

For the substance Conbercept eye injection (Fc fusion), the IC50 in assay [4] worked out at 16.9 nM; in assay [5], 0.0169 µg/mL.
